Measurements reported in patent publication US10227575B2, “Multi-domain enzymes having cutinase activity, compositions comprising same and uses thereof” (OZYMES, priority 2015, dated 2019).

Tests used:
[1] = Substrate range on p-NP esters, KrCUT versus KrCUT189; assay type: biochemical
Description: (§1) Esterase activity was determined by monitoring the formation of pNP at 410 nm from various pNP-esters using a Beckman UV spectrophotometer (model DU 640) (21). Substrates were dissolved in isopropanol and were added to 50 mM sodium phosphate buffer pH 8.0 to give 10% (v/v) total isopropanol concentration in a 1 mL reaction volume. pNP-butyrate was used at a final concentration of 1.2 mM. For pNP-caprylate, myristate and palmitate, the final concentration ranged from 0.1 to 0.5 mM. The reaction (1 mL) was started by adding an appropriate amount of enzyme. One enzyme unit (U) is defined as the amount of enzyme that produced 1 μmol of product (pNP) per min; specific activity is expressed as U/mg protein. A molar extinction coefficient of 15 mM^−1 cm^−1 for pNP is used for calculating enzyme activity.

[2] = pH optimum in Universal Buffer; assay type: biochemical; conditions: pH 5-11, p-nitrophenyl butyrate
Description: as §1
Universal Buffer solutions were prepared according to Britton and Robinson (Surinenaite et al., 2002), having the selected pH value from 5-11. Activity of KrCUT and KrCUT189 were measured at the indicated pH, using p-nitrophenyl butyrate as substrate as described in Example 1, section 1.6). Curves were obtained by plotting values of activity against pH.

[3] = Description: Molar masses of the samples were determined with universal calibration with the refractive index detector and the viscosity detector. The universal calibration curve was based on polystyrene standards [Polymer Laboratories (Amherst, Mass.) and Aldrich (Oakville, ON)] using the molar masses determined by the manufacturer and the intrinsic viscosities measured by the apparatus. The software OmniSEC™ software from Viscotek was used for data collection and calibration. Separation in THF was performed by injecting 100 μL of 1.5-2 mg/mL solutions of standards or samples into thermostatically controlled SuperRes™ columns [35° C.; PAS-102, PAS102.5, PAS-103L, each 300 mm×8 mm; PolyAnalytik (London, ON)]. The flow rate was 1 mL/min.
Alternatively, a thin film was prepared from 1 g of commercial available PCL pellets and used for degradation. The polymer was dissolved in dichloromethane in a 1 L beaker. The solvent was allowed to evaporate overnight and the resulting film dried to constant weight under reduced pressure. Prior to enzymatic treatment the film was cut into pieces (20 mg) of approximately 1.5 cm×1.5 cm and thickness of approximately 0.1 mm. The reaction mixture was monitored by HPLC and SEC as described above.
To quantify this further, pellets of polycaprolactone (PCL) as well as films of PCL were incubated with KrCUT at various enzyme concentrations (1.25 μM, 2.5 μM, and 5 μM representing 4.7, 9.5 and 19 enzyme Units) at 37° C. The degradation of the polymer was followed over time by analyzing aliquots of the reaction mixture by HPLC for the detection of the released monomer (6-hydroxyhexanoic acid) and characterization of the remaining polymer by SEC after lypholization of the sample.

[4] = Adsorption assay on PHB granules (Langmuir isotherm); assay type: binding
Description: Purified KrCUT of concentrations ranging from 0.16 to 3.2 mg/mL were mixed with 25 mg PHB in 50 mM sodium phosphate (pH 8.0) in a total volume of 1 mL and mixed by gently shaking for 3 h. The PHB polymer was removed by centrifugation and the concentration of protein in the supernatant was determined by the BCA method. The concentration of bound protein at a particular concentration of cutinase was calculated as the difference between a control without added PHB and free cutinase after incubation with PHB.
Adsorption assays were carried out following procedures of Kasuya et al. (1999). Purified KrCUT and KrCUT189 at concentrations ranging from 0.16 to 3.2 mg/mL were added to a suspension of 25 mg PHB in 50 mM sodium phosphate (pH 8.0) in a total volume 1 mL. The mixture was incubated at room temperature with gentle shaking for at least 3 h. The PHB polymer was removed by centrifugation and the concentration of protein in the supernatant was determined by the BCA method. The concentration of bound protein at a particular concentration of cutinase was calculated as the difference between a control without added PHB and free cutinase after incubation with PHB. An isotherm of [Bound](mg/mg PHB) vs [Free] (mM) was generated and binding parameters were determined by non-linear regression using the Langmuir equation:
[formula] where [E]=Ead+[E]e, is the concentration of the protein added; Emax is the maximum amount of protein adsorbed on the polyester granules, and K is the adsorption equilibrium constant of the protein.

[5] = Degradation of poly(1,3-propylene adipate); conditions: 2.5 μM, after 24 hours

B1: KrCUT189: truncated KrCUT lacking the T/P-rich linker and polymer-binding domain; cutinase catalytic domain, SEQ ID NO: 2 (protein)
chain: ATCSDVDVVFARGTGETPGLGVVGGPFVRSLTGELSDRTVTSHAVDYAASSSQASAGPGATAMSAHVREVAAACPSTRFVLGGYSQGATVTDIALGIRTGTTTGTPVPAELAGRVAAVVVFGNPLGLSGRTIATASSTYGPKSKDYCNSSDSVCGSAPKTGTGGHLSYASNGSTTDGARFAAGLVRAAG
modifications: Kineococcus radiotolerans; (1)..(189) KrCUT catalytic domain (KrCUT189)
For B1, the “activity towards pNB-acetate” value [1] was “little activity”, the “activity towards pNP-myristate compared to KrCUT” value [1] was “higher” and the “activity with various substrates compared to the full length protein” value [1] was “lower activity”. For the same molecule, the “substrate giving the highest activity” value ([1]; p-NP esters) was “pNP-myristate”, the pH optimum [2] was 8 and the “degradation of PCL pellets and PCL films compared with KrCUT” value [3] was “Nearly identical results”. The “binding to PHB” value [4] was “no binding” and the “adipic acid found in the reaction mixture” value [5] was 17%.
